Measurements reported in paper doi:10.1101/2025.09.11.675134, “Biodistribution-Driven Discovery Identifies a Glycosidase-Cleavable Linker to Reprogram Radiotheranostics” (bioRxiv, 2025).
Like-named read-outs stand apart in the source and are kept apart here.

Test: Ex vivo biodistribution screen of 111In-labeled DOTA-TATE derivatives in normal mice
Parameters: species or system athymic nude mice
Settings: 2 h post-injection; for tissue uptake at 2 h: athymic nude, mouse, iv, 1 ug per mouse, total radioactivity, normal athymic nude mice, mean; for Relative kidney retention, % rel. to DOTA-TATE: normal mice, 111In-DOTA-TATE set as 100%
Procedure: The panel of 10 compounds were then tested in an initial biodistribution screen of 9 organs assessed in non-tumor-bearing mice at specific timepoints following administration of the radioconjugates. Each agent was initially labeled with ^111In, a long-lived gamma-emitting radioisotope suitable for biodistribution studies, with high radiochemical yields and purity (Fig. S12). The compounds were then dosed (1.55 ± 0.12 MBq; 1 μg per mouse) in healthy athymic nude mice via intravenous (i.v.) injection in phosphate-buffered saline (PBS; vehicle). After 2 hours, the mice were sacrificed and ex vivo biodistribution analysis was performed (Fig. 2). […] This was an expected finding because this variant was designed to bind serum albumin.
Radiolabeling and In Vivo Evaluation of DOTA-TATE Variants:
Biodistribution, PET Quantification, and Dosimetry
Radiolabeling: To perform the initial biodistribution screen, radiolabeling of 10 compounds, including DOTA-TATE, was carried out using 111In (Cardinal Health, Arbutus, MD, USA), an affordable and readily available gamma -emitting radioisotope with a moderate half -life (2.83 days), which affords efficient DOTA radiolabeling and facilitates handling. 111InCl3 (28 – 36 MBq) was diluted with 0.4 M NH 4OAc buffer (pH 5.2) and combined with DOTA -TATE variants (20 μg). The solution was mixed well and then incubated at 90 °C for 30 min.
Radiolabeling efficiency and radiochemical purity were determined by radio -TLC and radio - HPLC. Radiochemical yield was >95% and the material was used without further purification.
The specific activity was 1.55 ± 0.12 TBq/g (41.9 ± 3.2 Ci/g). […]
Radio-instant thin-layer chromatography (radio-iTLC) was performed using silicic acid-impregnated glass microfiber paper strips (iTLC-SA, Varian, Lake Forest, CA, USA) as the stationary phase, and 50 mM EDTA in 100 mM NH4OAc (pH 5.5) as the mobile phase, analyzed with a radio-TLC scanner (AR-2000, Eckert-Ziegler, Wilmington, MA, USA). For Ac-225, equilibration was allowed for at least 12 hours before scanning the TLC strips to confirm initial scans. Radio-HPLC analysis (Agilent 1260 Infinity II, Agilent Technologies Inc., Santa Clara, CA, USA) was conducted on a TSK- Octadecyl-4PW column (5 µm, 4.6 mm ID × 15 cm, Tosoh
Co. Tokyo, Japan) with gradient elution using 0.1% trifluoroacetic acid in water as mobile phase A and 0.1% trifluoroacetic acid in acetonitrile as Mobile phase B. The elution sequence was 0-5 […]
PET imaging and biodistribution: For initial biodistribution screen studies, normal mice were administered 1.4 – 1.8 MBq (1 μg) of 111In-DOTA-TATE variants via tail vein injection and biodistribution studies were conducted at 2 hours post -injection (n = 2 – 4 per cohort).
For studies involving three variants (DOTA -TATE, DOTA-MVK(ε)-TATE, and DOTA-β-Gal-TATE), AR42J cells (5 × 10^6 cells per mouse) were subcutaneously inoculated into the right shoulder of the mice. Tumors were allowed to grow for 3 weeks, reaching a volume of 100 –200 mm³ before being used in subsequent experiments. For biodistribution or PET imaging studies, mice bearing subcutaneous AR42J tumors were administered 1.4 – 1.8 MBq (1 μg) of 111In-labeled DOTA-TATE variants or 2.7 – 4.9 MBq (1 μg) of 86Y-labeled DOTA-TATE variants via tail vein injection. Biodistribution studies with 111In-labeled DOTA -TATE variants were performed 1 hour post -injection (n = 3 per cohort), while studies with 86Y-labeled DOTA-TATE variants were conducted at 1, 4, and 24 hours post -injection (n = 3 per cohort). Mice were euthanized by CO2 asphyxiation, and 10 tissues, including tumors, were collected. All samples were weighed and counted on a gamma counter (2480 Wizard 3, Perkin Elmer Inc., Waltham, MA, USA). Results are presented as percentage of injected activity per gram (%IA/g) and mean values ± standard deviations.
PET imaging to assess the uptake of three 86Y-labeled DOTA-TATE variants (2.7 – 4.9 MBq, 1 […]

[1] = blood, i.v. 1 μg (1.4–1.8 MBq), ex vivo gamma counting, n = 2–4, read-out: Blood uptake
[2] = femur, i.v. 1 μg, ex vivo, n = 2–4, read-out: Femur uptake
[3] = heart, i.v. 1 μg, ex vivo, n = 2–4, read-out: Heart uptake
[4] = intestine, i.v. 1 μg, ex vivo, n = 2–4, read-out: Intestine uptake
[5] = liver, i.v. 1 μg, ex vivo, n = 2–4, read-out: Liver uptake
[6] = lung, i.v. 1 μg, ex vivo, n = 2–4, read-out: Lung uptake
[7] = muscle, i.v. 1 μg, ex vivo, n = 2–4, read-out: Muscle uptake
[8] = spleen, i.v. 1 μg, ex vivo, n = 2–4, read-out: Spleen uptake

CSCC[C@H](NC(=O)CN1CCN(CC(=O)O)CCN(CC(=O)O)CCN(CC(=O)O)CC1)C(=O)N[C@H](C(=O)N[C@@H](CCCCNC(=O)CCCC(=O)N[C@H](Cc1ccccc1)C(=O)N[C@H]1CSSC[C@@H](C(=O)N[C@H](C(=O)O)[C@@H](C)O)NC(=O)[C@H]([C@@H](C)O)NC(=O)[C@H](CCCCN)NC(=O)[C@@H](Cc2c[nH]c3ccccc23)NC(=O)[C@H](Cc2ccc(O)cc2)NC1=O)C(=O)O)C(C)C [^111In-DOTA-MVK(ε)-TATE, metal not drawn] showed a tissue uptake at 2 h [1] of 0.15 %ID/g, a tissue uptake at 2 h [2] of 0.31 %ID/g and a tissue uptake at 2 h [3] of 0.11 %ID/g. For the same compound, the tissue uptake at 2 h [4] was 0.83 %ID/g, the tissue uptake at 2 h [5] was 0.16 %ID/g and the tissue uptake at 2 h [6] was 0.33 %ID/g. The tissue uptake at 2 h [7] was 0.06 %ID/g, the tissue uptake at 2 h [8] was 0.12 %ID/g and the “Relative kidney retention, % rel. to DOTA-TATE” value was 67%.

In the case of C[C@@H](O)[C@H](NC(=O)[C@@H]1CSSC[C@H](NC(=O)[C@@H](Cc2ccccc2)NC(=O)CN2CCN(CC(=O)O)CCN(CC(=O)O)CCN(CC(=O)O)CC2)C(=O)N[C@@H](Cc2ccc(O)cc2)C(=O)N[C@H](Cc2c[nH]c3ccccc23)C(=O)N[C@@H](CCCCN)C(=O)N[C@@H]([C@@H](C)O)C(=O)N1)C(=O)O [^111In-DOTA-TATE, metal not drawn, reference compound], the tissue uptake at 2 h [1] is reported as 0.04 %ID/g, the tissue uptake at 2 h [2] is reported as 0.05 %ID/g and the tissue uptake at 2 h [3] is reported as 0.03 %ID/g. It also gave a tissue uptake at 2 h [4] of 0.51 %ID/g, a tissue uptake at 2 h [5] of 0.09 %ID/g and a tissue uptake at 2 h [6] of 0.18 %ID/g. It also gave a tissue uptake at 2 h [7] of 0.01 %ID/g and a tissue uptake at 2 h [8] of 0.06 %ID/g.

Compound C[C@@H](O)[C@H](NC(=O)[C@@H]1CSSC[C@H](NC(=O)[C@@H](Cc2ccccc2)NC(=O)CCCC(=O)Nc2cc(COC(=O)N(C)CCNC(=O)CN3CCN(CC(=O)O)CCN(CC(=O)O)CCN(CC(=O)O)CC3)ccc2O[C@@H]2O[C@H](CO)[C@H](O)[C@H](O)[C@H]2O)C(=O)N[C@@H](Cc2ccc(O)cc2)C(=O)N[C@H](Cc2c[nH]c3ccccc23)C(=O)N[C@@H](CCCCN)C(=O)N[C@@H]([C@@H](C)O)C(=O)N1)C(=O)O [^111In-DOTA-β-Gal-TATE, metal not drawn] has a tissue uptake at 2 h (in vivo, i.v. 1 μg (1.4–1.8 MBq), ex vivo gamma counting, n = 2–4, read-out: Blood uptake) of 0.04 %ID/g, a tissue uptake at 2 h (in vivo, i.v. 1 μg, ex vivo, n = 2–4, read-out: Femur uptake) of 0.07 %ID/g and a tissue uptake at 2 h (in vivo, i.v. 1 μg, ex vivo, n = 2–4, read-out: Heart uptake) of 0.03 %ID/g. The tissue uptake at 2 h (in vivo, i.v. 1 μg, ex vivo, n = 2–4, read-out: Intestine uptake) was 0.49 %ID/g, the tissue uptake at 2 h (in vivo, i.v. 1 μg, ex vivo, n = 2–4, read-out: Liver uptake) was 0.11 %ID/g and the tissue uptake at 2 h (in vivo, i.v. 1 μg, ex vivo, n = 2–4, read-out: Lung uptake) was 0.28 %ID/g. The tissue uptake at 2 h (in vivo, i.v. 1 μg, ex vivo, n = 2–4, read-out: Muscle uptake) was 0.02 %ID/g, the tissue uptake at 2 h (in vivo, i.v. 1 μg, ex vivo, n = 2–4, read-out: Spleen uptake) was 0.08 %ID/g and the “Relative kidney retention, % rel. to DOTA-TATE” value was 67%.
